From article PMC8103725 (FASEB BioAdvances, 2021)

Molecular target: HEG1–KRIT1 interaction (EGFP‐KRIT1 FERM domain binding to HEG1 cytoplasmic tail on beads) (Homo sapiens, UniProt O00522)
Experiment: Flow cytometry bead assay for the HEG1–KRIT1 FERM domain interaction
Details: bead assay, compared with wild‐type KRIT1

Sequence of HEG1–KRIT1 interaction (EGFP‐KRIT1 FERM domain binding to HEG1 cytoplasmic tail on beads) (O00522 417-736): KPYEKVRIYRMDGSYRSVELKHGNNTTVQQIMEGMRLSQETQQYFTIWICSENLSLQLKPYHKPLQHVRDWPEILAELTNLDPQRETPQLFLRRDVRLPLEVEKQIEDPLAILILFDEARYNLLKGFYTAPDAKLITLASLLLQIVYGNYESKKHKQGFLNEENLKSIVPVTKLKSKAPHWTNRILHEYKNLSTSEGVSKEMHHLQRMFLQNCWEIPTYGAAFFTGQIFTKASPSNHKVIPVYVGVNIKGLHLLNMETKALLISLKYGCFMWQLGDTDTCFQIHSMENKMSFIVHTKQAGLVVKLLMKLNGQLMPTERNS

binding to HEG1: dramatic reduction in binding
B1: KRIT1 (L717,721A) mutant: EGFP‐KRIT1 FERM domain mutant with reduced affinity for HEG1 (protein)
chain: KPYEKVRIYRMDGSYRSVELKHGNNTTVQQIMEGMRLSQETQQYFTIWICSENLSLQLKPYHKPLQHVRDWPEILAELTNLDPQRETPQLFLRRDVRLPLEVEKQIEDPLAILILFDEARYNLLKGFYTAPDAKLITLASLLLQIVYGNYESKKHKQGFLNEENLKSIVPVTKLKSKAPHWTNRILHEYKNLSTSEGVSKEMHHLQRMFLQNCWEIPTYGAAFFTGQIFTKASPSNHKVIPVYVGVNIKGLHLLNMETKALLISLKYGCFMWQLGDTDTCFQIHSMENKMSFIVHTKQAGAVVKALMKLNGQLMPTERNS
modifications: left off: His6, N-terminal, state not stated | EGFP, N-terminal, kept
